Data as given in patent publication US20210079037A1 (TECHNISCHE UNIVERSIT T M NCHEN, published 2021).

Legend:
[1] = target: T1, mouse anti-6×His antibody alkaline phosphatase (AP) conjugate (Arigo Biolaboratories); assay: ELISA: ProtL-ABD in a dilution series captured on coated HSA, mouse anti-6xHis Ig-AP conjugate (1:1000) applied, UV light of 365 nm for 5 min before the washes, AP activity as dA/dt [left graph]
T1 construct: also called mouse anti-6×His Ig-AP conjugate; Ig-AP conjugate
Experimental: (§1) ELISA was performed at ambient temperature in a 96-well Maxisorb microtiter plate (Nunc, Langenselbold, Germany).
(§2) Then, the wells were blocked with […] Roti-Block (Carl Roth, Karlsruhe, Germany) diluted 1:10 in ddH₂O for 1 h and washed three times with PBS containing 0.1% v/v Tween 20 (PBS/T). After that, the purified ProtL^Caf-ABD fusion protein from Example 11 was applied in a dilution series in PBS/T and incubated for 1 h to effect complex formation between the ABD moiety and the pre-adsorbed HSA. The wells were then washed three times with PBS/T and incubated with 50 μl of a 1:1000 dilution in PBS/T of the aforementioned mouse anti-6×His Ig-AP conjugate.

[2] = target: T1, mouse anti-6×His antibody alkaline …; assay: ELISA: ProtL-ABD in a dilution series captured on coated HSA, mouse anti-6xHis Ig-AP conjugate (1:1000) applied, kept in daylight, AP activity as dA/dt [left graph]
Experimental: as §1, §2

[3] = target: T2, recombinant human serum albumin (HSA) produced in rice (Sigma-Aldrich) (human, UniProt P02768 25-609); assay: ELISA, capture of the ABD fusion on HSA-coated plate
T2 construct: also called recombinant HSA
T2 sequence (P02768 25-609 limits assumed): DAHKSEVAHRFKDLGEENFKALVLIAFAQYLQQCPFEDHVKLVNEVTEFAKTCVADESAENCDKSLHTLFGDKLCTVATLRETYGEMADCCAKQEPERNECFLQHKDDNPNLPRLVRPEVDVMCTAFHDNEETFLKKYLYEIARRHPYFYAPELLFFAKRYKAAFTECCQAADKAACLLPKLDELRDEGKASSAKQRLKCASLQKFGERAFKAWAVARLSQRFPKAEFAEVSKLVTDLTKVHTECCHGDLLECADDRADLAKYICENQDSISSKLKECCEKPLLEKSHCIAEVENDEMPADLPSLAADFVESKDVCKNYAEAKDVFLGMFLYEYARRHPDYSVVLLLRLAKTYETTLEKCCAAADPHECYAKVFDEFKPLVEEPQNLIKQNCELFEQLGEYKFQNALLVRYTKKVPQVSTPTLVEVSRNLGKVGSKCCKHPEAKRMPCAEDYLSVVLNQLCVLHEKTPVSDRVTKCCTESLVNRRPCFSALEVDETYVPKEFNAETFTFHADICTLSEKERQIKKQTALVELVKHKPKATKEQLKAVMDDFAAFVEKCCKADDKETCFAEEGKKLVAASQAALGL
Experimental: as §1, §2

B1: ProtL-ABD fusion protein (other)
chain: MKEEVTIKVNLIFADGKTQTAEFKGTFEEATAKAYAYADLLAKENGEYTADLEDGGNTINIKFAGGAVDANSLAEAKVLANRELDKYGVSDYYKNLINNAKTVEGVKALIDEILAALP
notes: also called protein L-ABD fusion protein; unmodified ProtL-ABD
- EC50 (read off the curve) [1]: ~40 nM
- EC50 (read off the curve) [2]: ~40 nM
- binding result [3]: binds
